Test results taken from paper PMC8269367.

Each substance was assayed against T1, CTCF (Mus musculus) (UniProt Q61164) (assay: MST). Conditions: 50 nM labelled protein, 0.61 nM-20 uM oligo, 140 mM potassium phosphate pH 7.2 (6.7 for i-motif N1-3; CTCF oligo CD at pH 6.7), 10 mM NaCl in oligo ….
T1 sequence: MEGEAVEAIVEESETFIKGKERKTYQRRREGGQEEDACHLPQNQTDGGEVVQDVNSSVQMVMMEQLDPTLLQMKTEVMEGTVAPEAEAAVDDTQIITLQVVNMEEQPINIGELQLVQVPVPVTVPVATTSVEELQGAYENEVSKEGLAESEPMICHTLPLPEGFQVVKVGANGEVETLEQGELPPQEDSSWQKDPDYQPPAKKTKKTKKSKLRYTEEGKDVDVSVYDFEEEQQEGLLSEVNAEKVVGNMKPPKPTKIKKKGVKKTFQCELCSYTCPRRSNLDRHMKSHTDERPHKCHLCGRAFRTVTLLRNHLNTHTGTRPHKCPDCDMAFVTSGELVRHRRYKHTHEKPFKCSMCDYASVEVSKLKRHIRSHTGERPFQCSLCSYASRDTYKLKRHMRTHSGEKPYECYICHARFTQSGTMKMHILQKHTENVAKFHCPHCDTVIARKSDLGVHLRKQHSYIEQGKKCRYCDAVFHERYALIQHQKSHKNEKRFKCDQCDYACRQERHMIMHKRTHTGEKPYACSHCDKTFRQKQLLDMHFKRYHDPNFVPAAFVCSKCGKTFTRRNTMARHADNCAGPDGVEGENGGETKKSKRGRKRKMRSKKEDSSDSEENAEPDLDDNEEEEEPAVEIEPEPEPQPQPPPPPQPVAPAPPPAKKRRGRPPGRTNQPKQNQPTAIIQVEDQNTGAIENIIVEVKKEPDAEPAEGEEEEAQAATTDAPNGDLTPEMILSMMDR
For GGGGGGCGGGGGGCGGGGGGGGGGG [BDN-G4], the Kd was 120 nM. Substance GGGGGTGGGGGGTGGGGGGAGGGGGG [SHA-G4] has a Kd of 70 nM. For control CTCF duplex, the Kd was 80 nM.

These substances were tested against HMGN3 (Homo sapiens) (UniProt Q15651) (assay: MST). Conditions: 50 nM labelled protein, 0.61 nM-20 uM oligo, 140 mM potassium phosphate pH 7.2 (6.7 for i-motif N1-3; CTCF oligo CD at pH 6.7), 10 mM NaCl in oligo ….
Sequence of HMGN3 (Homo sapiens) (Q15651 whole entry): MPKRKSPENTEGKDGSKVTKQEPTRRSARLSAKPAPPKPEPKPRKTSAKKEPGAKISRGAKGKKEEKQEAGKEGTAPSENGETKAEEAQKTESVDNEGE
AAAAAAAAAAAAAAAAAAAA [A20] showed a Kd of over 20000 nM. Work on “AAGGAAAAGAAAAAA (double strand) [N3-2/N3C-2]” yielded a Kd of over 20000 nM. Work on “CAATCGGATCGAATTCGATCCGATTG [hair (ds26)]” yielded a Kd of over 20000 nM. Work on GGAGCAGGTGGGGAGCAGGCCGGAAGAGG [N3-M5] yielded a Kd of over 20000 nM. In the case of GGGGACGAAGGGGGCGCGGTGCCTCCTGG [N3-M7], the Kd is reported as 150 nM. GGGGCCAGTGGACGCGGGGAGCCTGCGGG [N3-M6] showed a Kd of over 10000 nM. Substance “TTTTCTTCTTCTTTT (double strand) [N3-1/N3C-1]” has a Kd of over 20000 nM. TTTTTTTTTTTTTTTTTTTT [T20] was tested, and the Kd was over 20000 nM.
